Measured values as given in US20130040894A1, “INHIBITION OR ACTIVATION OF SERINE/THREONINE ULK3 KINASE ACTIVITY” (TALLINN UNIVERSITY OF TECHNOLOGY, priority 2009, published 2013).
Residue numbers refer to the chain shown, from its start. Numbers in names are those of the source.

B1: ULK3: human serine/threonine kinase, 472 amino acids (SEQ ID NO: 1), overexpressed from cloned cDNA or immunopurified FLAG-tagged (protein, listed as Homo sapiens)
chain: MAGPGWGPPRLDGFILTERLGSGTYATVYKAYAKKDTREVVAIKCVAKKSLNKASVENLLTEIEILKGIRHPHIVQLKDFQWDSDNIYLIMEFCAGGDLSRFIHTRRILPEKVARVFMQQLASALQFLHERNISHLDLKPQNILLSSLEKPHLKLADFGFAQHMSPWDEKHVLRGSPLYMAPEMVCQRQYDARVDLWSMGVILYEALFGQPPFASRSFSELEEKIRSNRVIELPLRPLLSRDCRDLLQRLLERDPSRRISFQDFFAHPWVDLEHMPSGESLGRATALVVQAVKKDQEGDSAAALSLYCKALDFFVPALHYEVDAQRKEAIKAKVGQYVSRAEELKAIVSSSNQALLRQGTSARDLLREMARDKPRLLAALEVASAAMAKEEAAGGEQDALDLYQHSLGELLLLLAAEPPGRRRELLHTEVQNLMARAEYLKEQVKMRESRWEADTLDKEGLSESVRSSCTLQ
modifications: PEPTIDE (1)..(472) ULK3
B2: ULK3(K139R): kinase-deficient ULK3 mutant with Lysine at position 139 mutated to Arginine (SEQ ID NO:7) (protein)
chain: B1 chain with K139R
modifications: MUTAGEN (1)..(472) mutated ULK3 protein ULK3 (K139R)

Assays:
[1] = tested on: GLI1 mRNA expression in HEK293 cells; test: Quantitative RT-PCR of endogenous GLI1 mRNA expression; assay type: cell-based, human; conditions: normalized by HPRT; for induction of endogenous GLI1 expression: 72 h; for endogenous GLI1 expression level relative to empty vector: FIG. 5B
Procedure: HEK293 cells were transfected with FLAG-tagged wt ULK3, ULK3(K139R) or respective empty vector in two replicates. After 5 h of incubation one replicate of cells transfected with the vector was induced by SHHC24II. The cells were incubated 24 h and 72 h, washed with PBS. Total RNA was isolated and treated with DNaseI using RNAqueous kit (Ambion) according to manufacture's instructions. cDNA of 2 μg total RNA was synthesised using SuperScript III kit (Ambion). Levels of GLI1 mRNA and mRNA of housekeeping gene HPRT used for normalization were detected in triplicates by quantitative Real-Time PCR. The following GLI1 primers were used for the assay: […]
HEK293 cells were transfected by ULK3 or respective empty vector. Cells transfected with empty vector were induced by 12 nM of SHHC24II and were used as a posititve control. Cells were incubated 24 h and 72 h, and total RNA was isolated. Level of GLI1 expression was measured using QRT-PCR procedure and the obtained data was normalized by expression of housekeeping gene HPRT. Level of GLI1 expression in cells transfected with empty vector was taken as 1.

[2] = tested on: GLI1 in nuclear extracts of Cos1 cells; test: Cell fractionation analysis with WB; assay type: cell-based, primate; conditions: cotransfected with FLAG-tagged GLI1 in Cos1 cells, lamin A/C loading control
Procedure: Cos1 cells were transfected with FLAG-tagged expression constructs for GLI1 combined with ULK3, ULK3(K139R) or empty vector in ratio 1:1 on 10 cm plates. Nuclear and whole cell extracts (NE and WCE, respectively) were prepared as described in [36]. All extracts were normalized for protein amounts measured using […] kit (Thermo Scientific). A total 10 μg of protein were separated by SDS-PAGE and transferred to the PVDF membrane (Millipore, Billerica Mass., USA). The membrane was segmented according to the expected size of the detected proteins. Obtained strips were probed with the appropriate antibodies.
WB was performed using a non-blocking technique as described in [37]. Mouse monoclonal M2-anti-FLAG antibody (Sigma-Aldrich) was used for detection of FLAG-tagged GLI1, GLI2, GLI3, ULK3, ULK3(K44R) and ULK3(K139R) by WB in dilution 1:2000. Lamin A/C was detected with mouse monoclonal anti-Lamin A/C antibody (Upstate, Billerica Mass., USA) diluted 1:1000. Mouse monoclonal anti-His antibody (Novagen, Darmstadt, Germany) diluted 1:1500 was used for detection of bacterially expressed and purified GLI1 fragements. […]
To confirm the data from the immunofluorescent staining, we performed cell fractionation analysis. […] Expression of lamin A/C was analyzed as a loading control. ULK3 and ULK3(K139R) were detected mostly in WCEs.

[3] = tested on: GLI-dependent firefly luciferase activity in Shh-LIGHT2 cells; test: GLI-dependent luciferase assay in Shh-L2 cells; assay type: cell-based, mouse; conditions: for enhancement of transcriptional activity of overexpressed GLI1: cotransfected with GLI1, Shh-L2 cells; for enhancement of transcriptional activity of overexpressed GLI2: cotransfected with GLI2, Shh-L2 cells
Procedure: Cells were transfected by the expression constructs or respective empty vectors using Polyethylenimine transfection agent (PEI) (Inbio) and as described in [28]. We used 0.25 μg of cDNA per 1 cm^2 of plate surface area for transfections. After 3 h of transfection HEK293, NIH3T3 and Cos1 cells were propagated in the normal growth medium for 48 h. Prior the further analysis the cells were washed twice with PBS. Post-transfectional Shh-L2 cells were grown in the normal growth medium for 24 h and for additional 24 h in the Light medium containing 0.25% FBS, washed once with PBS, lysed in Passive Lysis Buffer (Promega, Madison Wis., USA) (70 ul per well of 24-well plate format) and subjected to luciferase assay.
Luciferase assay was performed as previously described. Briefly, firefly luciferase activity of 12 μl of the Shh-L2 cells lysate was measured using Luciferase Assay Kit (Promega) and galactosidase activity was quantified using Galacto-LightPlus kit (Tropix, Bedford Mass., USA) according to the manufacturer's instructions. Chemiluminicence was measured using Ascent FL Fluoroscan (Thermo Electron Corporation, Waltham Mass., USA) according to the manufacturer's instructions.
We cotransfected the constructs together with GLI-expressing plasmids (or respective empty vector) into Shh-L2 cells and assessed their effect on GLI-dependent firefly luciferase activity. The obtained data was normalized with β-galactosidase values. […] It was able to stimulate the luciferase activity 3.8 times and enhanced the transcriptional activity of over expressed GLI1 and GLI2 approximately 2 and 3.2 times, respectively. The potency of STK36 in the assay was much lower.
In order to examine if the kinase activity of ULK3 is required for the luciferase reporter activation we tested the supposed kinase-deficient variants of ULK3, ULK3(K44R) and ULK3(K139R) in the same assay. […] We also tested the effect of ULK3 and the mutants on the luciferase reporter when the SHH pathway was activated by cotransfection with pShhN (plasmid expressing biologically active part of SHH).

Molecule | induction of endogenous GLI1 expression [1] | endogenous GLI1 expression level relative to empty vector [1] | amount of GLI1 in nuclear extracts [2] | enhancement of transcriptional activity of overexpressed GLI1 [3] | enhancement of transcriptional activity of overexpressed GLI2 [3] | induction of luciferase activity with activated SHH pathway ([3]; cotransfection with pShhN, Shh-L2 cells) | stimulation of GLI-dependent luciferase activity ([3]; kinase construct alone, Shh-L2 cells, normalized with β-galactosidase)
B1 | able to induce | approximately 6 times | retained most of the GLI1 in the nuclei | approximately 2 times | ~3.2 times | approximately 4.1 times | 3.8 times
B2 | failed to activate | failed to activate | significantly lower amounts of GLI1 | neither of the mutants had an effect | completely inactive | – | –
